Assay results taken from US20250347705.

Target: human chorionic gonadotropin (hCG), alpha/beta heterodimer (Homo sapiens) (UniProt P01215+P0DN86)
Conditions: hCG magnetic beads with qPCR, artificial urine; round 6 pool 2.54%, round 7 20.88%, round 8 22.85%

Chain of human chorionic gonadotropin (hCG), alpha/beta heterodimer (Homo sapiens) (P01215 25-116, chain 1 of 2, other chains not shown): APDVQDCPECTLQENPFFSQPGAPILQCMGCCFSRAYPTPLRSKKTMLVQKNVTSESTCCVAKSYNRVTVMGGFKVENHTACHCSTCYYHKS

Sequence: TCGCACATTCCGCTTCTACCNNNNNNNNNNNNNNNNNNNNNNNNNNNNNNNNNNNNNNNNCGTAAGTCCGTGTGTGCGAA [SELEX round 9 pool]
- binding signal (% of input DNA bound): 77.4
